“And” between values parts separate entries of the source, which are not always exact repeats. Identical values can stand only once. Blank lines part the entries; values can stand above or below the binder they belong to.
What was measured:
crystal structure = molecular target: the molecule itself; assay: crystal structure
MlaE = molecular target: T1, MlaE (E. coli, UniProt P64606 1-260); assay: affinity purification with mass spectrometry
T1 sequence (looked up): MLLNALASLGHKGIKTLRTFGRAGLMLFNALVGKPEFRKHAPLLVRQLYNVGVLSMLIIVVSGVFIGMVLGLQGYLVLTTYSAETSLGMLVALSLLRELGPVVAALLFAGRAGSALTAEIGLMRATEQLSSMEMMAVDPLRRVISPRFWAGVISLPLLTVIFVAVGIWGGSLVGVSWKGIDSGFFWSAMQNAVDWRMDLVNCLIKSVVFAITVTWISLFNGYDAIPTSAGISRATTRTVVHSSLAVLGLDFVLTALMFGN

cryo-EM structure = molecular target: the molecule itself; assay: cryo-EM structure
negative-stain EM = molecular target: the molecule itself; assay: negative-stain EM
[1] = molecular target: T2, MlaA with C-terminal 6xHis tag (E. coli, UniProt P76506 18-251); assay: affinity purification with mass spectrometry
T2 sequence (looked up): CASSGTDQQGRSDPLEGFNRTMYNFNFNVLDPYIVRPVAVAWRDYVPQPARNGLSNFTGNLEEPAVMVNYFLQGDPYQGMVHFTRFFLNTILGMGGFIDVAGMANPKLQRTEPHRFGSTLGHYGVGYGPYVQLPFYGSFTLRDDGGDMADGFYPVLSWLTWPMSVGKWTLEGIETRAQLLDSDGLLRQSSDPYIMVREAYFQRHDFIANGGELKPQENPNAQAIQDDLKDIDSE

B1: MlaD core MCE domain (residues 32-140) (domain or fragment, E. coli, UniProt P64604 32-140, looked up)
chain: TSIRTEPTYTLYATFDNIGGLKARSPVSIGGVVVGRVADITLDPKTYLPRVTLEIEQRYNHIPDTSSLSIRTSGLLGEQYLALNVGFEDPELGTAILKDGDTIQDTKSA
stoichiometry N (crystal structure): 7 and 14

binding result (MlaE): binds
B2: His-tagged MlaD, co-expressed from the mlaFEDCB operon (natural protein, E. coli, UniProt P64604 1-183, looked up)
chain: MQTKKNEIWVGIFLLAALLAALFVCLKAANVTSIRTEPTYTLYATFDNIGGLKARSPVSIGGVVVGRVADITLDPKTYLPRVTLEIEQRYNHIPDTSSLSIRTSGLLGEQYLALNVGFEDPELGTAILKDGDTIQDTKSAMVLEDLIGQFLYGSKGDDNKNSGDAPAAAPGNNETTEPVGTTK

B3: PqiB periplasmic domain (residues 39-546) (domain or fragment, E. coli, UniProt P43671 39-546, looked up)
chain: SHQGPEVTLITANAEGIEGGKTTIKSRSVDVGVVESATLADDLTHVEIKARLNSGMEKLLHKDTVFWVVKPQIGREGISGLGTLLSGVYIELQPGAKGSKMDKYDLLDSPPLAPPDAKGIRVILDSKKAGQLSPGDPVLFRGYRVGSVETSTFDTQKRNISYQLFINAPYDRLVTNNVRFWKDSGIAVDLTSAGMRVEMGSLTTLLSGGVSFDVPEGLDLGQPVAPKTAFVLYDDQKSIQDSLYTDHIDYLMFFKDSVRGLQPGAPVEFRGIRLGTVSKVPFFAPNMRQTFNDDYRIPVLIRIEPERLKMQLGENADVVEHLGELLKRGLRGSLKTGNLVTGALYVDLDFYPNTPAITGIREFNGYQIIPTVSGGLAQIQQRLMEALDKINKLPLNPMIEQATSTLSESQRTMKNLQTTLDSMNKILASQSMQQLPTDMQSTLRELNRSMQGFQPGSAAYNKMVADMQRLDQVLRELQPVLKTLNEKSNALVFEAKDKKDPEPKRAKQ
stoichiometry N (cryo-EM structure): 6

B4: YebT, full length, C-terminal 6xHis tag (natural protein, E. coli, UniProt P76272 1-877, looked up)
chain: MSQETPASTTEAQIKNKRRISPFWLLPFIALMIASWLIWDSYQDRGNTVTIDFMSADGIVPGRTPVRYQGVEVGTVQDISLSDDLRKIEVKVSIKSDMKDALREETQFWLVTPKASLAGVSGLDALVGGNYIGMMPGKGKEQDHFVALDTQPKYRLDNGDLMIHLQAPDLGSLNSGSLVYFRKIPVGKVYDYAINPNKQGVVIDVLIERRFTDLVKKGSRFWNVSGVDANVSISGAKVKLESLAALVNGAIAFDSPEESKPAEAEDTFGLYEDLAHSQRGVIIKLELPSGAGLTADSTPLMYQGLEVGQLTKLDLNPGGKVTGEMTVDPSVVTLLRENTRIELRNPKLSLSDANLSALLTGKTFELVPGDGEPRKEFVVVPGEKALLHEPDVLTLTLTAPESYGIDAGQPLILHGVQVGQVIDRKLTSKGVTFTVAIEPQHRELVKGDSKFVVNSRVDVKVGLDGVEFLGASASEWINGGIRILPGDKGEMKASYPLYANLEKALENSLSDLPTTTVSLSAETLPDVQAGSVVLYRKFEVGEVITVRPRANAFDIDLHIKPEYRNLLTSNSVFWAEGGAKVQLNGSGLTVQASPLSRALKGAISFDNLSGASASQRKGDKRILYASETAARAVGGQITLHAFDAGKLAVGMPIRYLGIDIGQIQTLDLITARNEVQAKAVLYPEYVQTFARGGTRFSVVTPQISAAGVEHLDTILQPYINVEPGRGNPRRDFELQEATITDSRYLDGLSIIVEAPEAGSLGIGTPVLFRGLEVGTVTGMTLGTLSDRVMIAMRISKRYQHLVRNNSVFWLASGYSLDFGLTGGVVKTGTFNQFIRGGIAFATPPGTPLAPKAQEGKHFLLQESEPKEWREWGTALPK
stoichiometry N (negative-stain EM): 6

stoichiometry N [1]: ~1
B5: OmpF (natural protein, E. coli (endogenous in Rosetta 2 (DE3)), UniProt P02931 23-362, looked up)
chain: AEIYNKDGNKVDLYGKAVGLHYFSKGNGENSYGGNGDMTYARLGFKGETQINSDLTGYGQWEYNFQGNNSEGADAQTGNKTRLAFAGLKYADVGSFDYGRNYGVVYDALGYTDMLPEFGGDTAYSDDFFVGRVGGVATYRNSNFFGLVDGLNFAVQYLGKNERDTARRSNGDGVGGSISYEYEGFGIVGAYGAADRTNLQEAQPLGNGKKAEQWATGLKYDANNIYLAANYGETRNATPITNKFTNTSGFANKTQDVLLVAQYQFDFGLRPSIAYTKSKAKDVEGIGDVDLVNYFEVGATYYFNKNMSTYVDYIINQIDSDNKLGVGSDDTVAVGIVYQF
